Experimental data published in paper PMC11602162, “A compact stem-loop DNA aptamer targets a uracil-binding pocket in the SARS-CoV-2 nucleocapsid RNA-binding domain”.

How the values were obtained:
N-NTD [1] = target: T1, N-NTD (SARS-CoV-2 (Wuhan-Hu-1), UniProt P0DTC9 46-174); test: fluorescence anisotropy; 10 mM Tris-HCl pH 7.4, 150 mM NaCl, 1 mM MgCl2; […]; BLI with 0.05% Tween-20; […]
N protein full-length [2] = target: T2, N protein full-length (SARS-CoV-2 (Wuhan-Hu-1), UniProt P0DTC9 1-419); test: fluorescence anisotropy; Hill slope 0.91; 10 mM Tris-HCl pH 7.4, 150 mM NaCl, 1 mM MgCl2; FA with 0.1 mg/ml BSA at 25 C; BLI with 0.05% Tween-20; SEC at ambient temperature; details: protein: recombinant, tags: 6xHis-thioredoxin removed by HRV 3C, chain copies: 2, label: […], 5' biotin in BLI, hairpin, 2 bp stem
N protein full-length [3] = target: T2, N protein full-length; test: BLI; immobilized DNA, avidity; 10 mM Tris-HCl pH 7.4, 150 mM NaCl, 1 mM MgCl2; FA with 0.1 mg/ml BSA at 25 C; BLI with 0.05% Tween-20; SEC at ambient temperature; details: protein: recombinant, tags: 6xHis-thioredoxin removed by HRV 3C, chain copies: 2, hairpin
N-NTD [4] = target: T1, N-NTD; test: competition fluorescence anisotropy; probe N11; 10 mM Tris-HCl pH 7.4, 150 mM NaCl, 1 mM MgCl2; […]; BLI with 0.05% Tween-20; […]
N-NTD [5] = target: T1, N-NTD; test: DSF; 10 mM Tris-HCl pH 7.4, 150 mM NaCl, 1 mM MgCl2; […]; BLI with 0.05% Tween-20; […]
N-NTD [6] = target: N-NTD (SARS-CoV-2 (Wuhan-Hu-1), UniProt P0DTC9 46-174); test: competition fluorescence anisotropy; probe N11; 10 mM Tris-HCl pH 7.4, 150 mM NaCl, 1 mM MgCl2; FA with 0.1 mg/ml BSA at 25 C; BLI with 0.05% Tween-20; SEC at ambient temperature; details: protein: recombinant, tags: N-terminal 6xHis removed by HRV 3C
N-NTD [7] = target: T1, N-NTD; test: competition fluorescence anisotropy; 10 mM Tris-HCl pH 7.4, 150 mM NaCl, 1 mM MgCl2; […]; BLI with 0.05% Tween-20; […]
N-NTD [8] = target: T1, N-NTD; test: fluorescence anisotropy; 1 mM Mg2+; 10 mM Tris-HCl pH 7.4, 150 mM NaCl, 1 mM MgCl2; […]; BLI with 0.05% Tween-20; […]
N protein full-length [9] = target: T2, N protein full-length; test: fluorescence anisotropy; Hill slope 2.3; 10 mM Tris-HCl pH 7.4, 150 mM NaCl, 1 mM MgCl2; FA with 0.1 mg/ml BSA at 25 C; BLI with 0.05% Tween-20; SEC at ambient temperature; details: protein: recombinant; tags: 6xHis-thioredoxin removed by HRV 3C; chain copies: 2; hairpin

TCGGACATCGGATTGTCTGA (XNA, 2'-fluoro-dG at position 10 (loop G3)) [A58-20-2'FG3] was tested, and the Kd (N-NTD [1]) was 74 nM.

In the case of CATCGGATTG (ssDNA) [A58-10], the Kd (N protein full-length [2]) is reported as 24.9 nM and the Kd (N protein full-length [3]; label: […], 5' biotin in BLI, […], 2 bp stem) is reported as 3.77 nM.

ATCGGATT (ssDNA) [A58-8]: no binding (N-NTD [4]).

TCGGACATCGGATTGTCCGA (ssDNA) [A58-20_nwb2] was tested, and the Kd (N-NTD [1]) was 87.9 nM and the binding signal (N-NTD [5]) was 4.5 C (Tm shift).

For TCGGACATTTTTTTGTCTGA (ssDNA) [A58-20 TTTTTT], the binding signal (N-NTD [5]) was 0.5 C (Tm shift).

With TCGGACATCGGATTGTCTGA (XNA, 2'-fluoro-dG at position 10 (loop G3); i6-FAMK at position 13 (loop T6)) [A58-20-2'FG3-iT6FAM] the Kd (N-NTD [1]) was 13.9 nM.

TTTTTTTTTTTTTTT (ssDNA) [poly-dT15] was tested, and the Ki (N-NTD [6]) was 4120 nM.

For TCAGACATCGGATTGTCTGA (ssDNA) [A58-20_nwb1], the Kd (N-NTD [1]) was 84.9 nM and the binding signal (N-NTD [5]) was 4.5 C (Tm shift).

Work on GUCCCUCAUGUGGGC (structured_RNA) [SL10 RNA] yielded a Ki (N-NTD [6]; stem-loop) of 38700 nM.

B1: A58 (A58-58) (ssDNA)
DNA: GCTGGATGTCACCGGATTGTCGGACATCGGATTGTCTGAGTCATATGACACATCCAGC
Binder B1 has a Ki (N-NTD [4]) of 9.92 nM.

With UCGGACAUCGGAUUGUCUGA (ssRNA) [A58-20_RNA] the binding signal (N-NTD [5]) was -0.5 C (Tm shift) and the Ki (N-NTD [7]) was 90800 nM.

TCGGACATCGGATTGTCTGA (ssDNA) [A58-20] gave a Kd (N-NTD [8]) of 101 nM, a Kd (N protein full-length [9]) of 78.2 nM and a Kd (N protein full-length [3]) of 0.0101 nM. It also gave a Ki (N-NTD [4]) of 50.5 nM.

For TCGGACATCGGATTGTCTGA (ssDNA, fluorescein-dT (i6-FAMK) at position 13 (loop T6)) [A58-20-iT6FAM], the Kd (N-NTD [1]) was 74 nM.

For UUUUUUUUUUUUUUU (ssRNA) [poly-rU15], the Ki (N-NTD [6]) was 7800 nM.

UCAUGUUAUGGUUGA (structured_RNA) [SL9 RNA] gave a Ki (N-NTD [6]; stem-loop) of 15400 nM.
